Test results published in US6958236B2, “Control of gene expression in plants” (priority 2000, dated 2005).

Legend:
[1] = tested on: pCGS206 (luciferase reporter with response elements for the GAL4 DNA binding domain); assay: Maize BMS cells bombarded with GAL4 luciferase reporter and receptor vector, GUS-normalized luciferase; type: cell-based; details: for Experiment #1 RLU / Experiment #2 RLU: Example 28, GUS-normalized
Protocol: (§1) Maize BMS (Black Mexican Sweet) cultured cells are transfected with pCGS206 and pCGS208 by high velocity microprojectile bombardment. In addition, an expression plasmid containing the maize ubiquitin promoter driving the expression of β-glucuronidase (GUS) is added to the transfection to serve as an internal control to normalize against variations among the samples.
(§2) Transfections are treated and cell lysates are made essentially as described in U.S. Pat. No. 5,880,333. […] Both luciferase and GUS assays are performed with 20 μl of cell lysate for each assay using the Promega Luciferase Kit (Promega cat #E1500) and GUS-Light Kit (Tropix) respectively. Relative light units are determined using a Turner Designs TD 20/20 luminometer.
In addition to tebufenozide, methoxytebufenozide (“MethoxyTeb”) is also capable of inducing gene expression in maize BMS cells. Both pCGS206 and pCGS208 are transfected as described above and methoxytebufenozide is added in place of tebufenozide at 25 μM and 10 μM.
Maize BMS cells are transfected and assayed as in Example 12.
as §1, with “Transformation of maize suspension cells, chemical treatment, and reporter activity assays are performed as described in Example 12. Maize” for “Maize”, “pCGS206 (pBS-bz1TATA/intronLUC), pCGS203 (G(M)MV), pCGS672 (G(M)MC),” for “pCGS206”, “pCGS678 (G(M)MD)” for “pCGS208”
as §2, with “Maize BMS cells are bombarded with reporter vector pCGS206 and chimeric receptors and treated with tebufenozide essentially as described in Example 12. Transfections” for “Transfections”, “units (RLU)” for “units”

pCGS154 reporter = assay: Transient transfection of S2 Drosophila cells with luciferase reporter and EcR receptor plasmids; type: cell-based; details: for No Chemistry (luciferase activity as ratio to pCGS154 reporter without chemistry): reporter CGS154, no chemical ligand
Protocol: An in vivo cell based assay is designed to measure transcriptional activation by the receptors of a reporter plasmid. S2 Drosophila cells (ATCC CRL-1963) are transiently transfected with luciferase reporter and receptor expression plasmids using the calcium phosphate precipitation procedure (Di Nocera and David (1983) PNAS 80, 7095-7098). S2 cells are plated in 96 well format at a density of 2×10^5 in 166.6 μl of Schneider's Drosophila media supplemented with antibiotics and 10% heat inactivated fetal bovine serum (GIBO-BRL). The following day, 33.4 μl of a calcium phosphate precipitate containing 3-6 ng of pCGS154 reporter plasmid, 3-6 ng of EcR receptor plasmid along with salmon sperm DNA to a total of 400 ng DNA per well is added. Chemical ligands are added 16-24 hours after DNA addition to the cells. Cells are then harvested and extracted 24 hours after chemistry addition following the procedures for the luciferase assay by centrifuging and resuspending the cell pellets in 100 μl of cell culture lysis reagent (Promega). Luciferase activity is quantitated using chemiluminescence (Promega) using an analytical luminescence model 2001 luminometer.
S2 cells contain Drosophila EcR and USP. The endogenous USP can be used as the heterodimerization partner for EcR or exogenous USP expression plasmid can be added to the assay.
To compare the activities of Manduca and Drosophila EcR, S2 cells are transiently transfected using the above procedure with the reporter plasmid pCGS 154 and either full-length Drosophila EcR, DDV, full-length Manduca EcR, or MMV. Tebufenozide at 0.2 µM and 2 μM is used as the chemical ligand. Luciferase assays are performed as described above. All of the results are normalized as a ratio of activity to the light unit value for the pCGS154 reporter without chemistry.
The activities of the EcR-VP16 chimeras are compared by transiently transfecting S2 cells as described in Example 3. Tebufenozide is added to the cells at 0.2 μM concentration. Results are expressed as fold activation, a ratio of the activity of the constructs with chemistry added as compared to activity of the constructs without chemistry. All results are normalized to the luciferase activity of the pCGS154 reporter without receptor addition.
(§3) The activities of the EcR-VP16 chimeras are compared by transiently transfecting S2 cells as in Example 3. Tebufenozide is added to the cells at 0.2 μM concentration. Results are expressed as fold activation of constructs with chemistry as compared to without chemistry. All results are normalized to the luciferase activity of the pCGS154 reporter without receptor.
as §3, with “chemistry addition.” for “chemistry.”

[2] = Example 26, + 10 μM Teb vs without
[3] = Example 26, BMS cells, reporter pCGS206, no ligand
[4] = Example 6, 0.2 μM tebufenozide vs without chemistry, normalized to pCGS154 reporter without receptor
[5] = BMS cells, reporter pCGS206, no ligand

B1: G(M)MD: EcR chimera: GAL4 DBD, Manduca sexta D and E domains, maize Dof1 activation domain; SEQ ID NO:136-137 (protein)
chain: MQQLYVDFFSPAFIRYLFAWYCFFCRCSPCCLVLLLQGSATMKLLSSIEQACDICRLKKLKCSKEKPKCAKCLKNNWECRYSPKTKRSPLTRAHLTEVESRLERLEQLFLLIFPREDLDMILKMDSLQDIKALLTGLFVQDNVNKDAVTDRLASVETDMPLTLRQHRISATSSSEESSNKGQRQLTVSTRMRPECVVPESTCKNKRREKEAQREKDKLPVSTTTVDDHMPAIMQCDPPPPEAARIHEVVPRFLTEKLMEQNRLKNVTPLSANQKSLIARLVWYQEGYEQPSEEDLKRVTQTWQLEEEEEEETDMPFRQITEMTILTVQLIVEFAKGLPGFSKISQSDQITLLKASSSEVMMLRVARRYDAATDSVLFANNQAYTRDNYRKAGMSYVIEDLLHFCRCMYSMSMDNVHYALLTAIVIFSDRPGLEQPLLVEEIQRYYLKTLRVYILNQHSASPRCAVLFGKILGVLTELRTLGTQNSNMCISLKLKNRKLPPFLEEIWDVAEVSTTKLELATAADPGKTATTTTTTTSEITTETGALEDSDSLAHLLLQPGTEDAEAVALGLGLSDFPSAGKAVLDDEDSFVWPAASFDMGACWAGAGFADPDPACIFLNLP
[1]; Example 26, + 10 μM Teb
  Experiment #1 Luciferase: 6.37
  Experiment #2 Luciferase: 9.14
[1]; [2]
  Experiment #1 Fold Induction: 3.0 fold
  Experiment #2 Fold Induction: 7.8 fold
[1]; [3]
  Experiment #1 Luciferase: 2.14
  Experiment #2 Luciferase: 1.18

B2: DDV: EcR chimera: Drosophila melanogaster C+D and E domains, VP16; SEQ ID NO:95-96 (protein)
chain: MGRDDLSPSSSLNGYSANESCDAKKSKKGPAPRVQEELCLVCGDRASGYHYNALTCEGCKGFFRRSVTKSAVYCCKFGRACEMDMYMRRKCQECRLKKCLAVGMRPECVVPENQCAMKRREKKAQKEKDKMTTSPSSQHGGNGSLASGGGQDFVKKEILDLMTCEPPQHATIPLLPDEILAKCQARNIPSLTYNQLAVIYKLIWYQDGYEQPSEEDLRRIMSQPDENESQTDVSFRHITEITILTVQLIVEFAKGLPAFTKIPQEDQITLLKACSSEVMMLRMARRYDHSSDSIFFANNRSYTRDSYKMAGMADNIEDLLHFCRQMFSMKVDNVEYALLTAIVIFSDRPGLEKAQLVEAIQSYYIDTLRIYILNRHCGDSMSLVFYAKLLSILTELRTLGNQNAEMCFSLKLKNRKLPKFLEEIWDVHAIPPKLAPPTDVSLGDELHLDGEDVAMAHADALDDFDLDMLGDGDSPGPGFTPHDSAPYGALDMADFEFEQMFTDALGIDEYGG
pCGS154 reporter; [4]
  Assay # 1 Fold Activation With Chemistry: 1.01 fold
  Assay # 2 Fold Activation With Chemistry: 0.68 fold
pCGS154 reporter
  No Chemistry (luciferase activity as ratio to pCGS154 reporter without chemistry): 1

B3: DrosFL: full-length Drosophila EcR expression cassette in pPacU (protein, UniProt P34021 1-878, looked up)
chain: MKRRWSNNGGFMRLPEESSSEVTSSSNGLVLPSGVNMSPSSLDSHDYCDQDLWLCGNESGSFGGSNGHGLSQQQQSVITLAMHGCSSTLPAQTTIIPINGNANGNGGSTNGQYVPGATNLGALANGMLNGGFNGMQQQIQNGHGLINSTTPSTPTTPLHLQQNLGGAGGGGIGGMGILHHANGTPNGLIGVVGGGGGVGLGVGGGGVGGLGMQHTPRSDSVNSISSGRDDLSPSSSLNGYSANESCDAKKSKKGPAPRVQEELCLVCGDRASGYHYNALTCEGCKGFFRRSVTKSAVYCCKFGRACEMDMYMRRKCQECRLKKCLAVGMRPECVVPENQCAMKRREKKAQKEKDKMTTSPSSQHGGNGSLASGGGQDFVKKEILDLMTCEPPQHATIPLLPDEILAKCQARNIPSLTYNQLAVIYKLIWYQDGYEQPSEEDLRRIMSQPDENESQTDVSFRHITEITILTVQLIVEFAKGLPAFTKIPQEDQITLLKACSSEVMMLRMARRYDHSSDSIFFANNRSYTRDSYKMAGMADNIEDLLHFCRQMFSMKVDNVEYALLTAIVIFSDRPGLEKAQLVEAIQSYYIDTLRIYILNRHCGDSMSLVFYAKLLSILTELRTLGNQNAEMCFSLKLKNRKLPKFLEEIWDVHAIPPSVQSHLQITQEENERLERAERMRASVGGAITAGIDCDSASTSAAAAAAQHQPQPQPQPQPSSLTQNDSQHQTQPQLQPQLPPQLQGQLQPQLQPQLQTQLQPQIQPQPQLLPVSAPVPASVTAPGSLSAVSTSSEYMGGSAAIGPITPATTSSITAAVTASSTTSAVPMGNGVGVGVGVGGNVSMYANAQTAMALMGVALHSHQEQLIGGVAVKSEHSTTA
modifications: full-length
notes: full-length Drosophila EcR expression cassette in pPacU
pCGS154 reporter
  No Chemistry (luciferase activity as ratio to pCGS154 reporter without chemistry): 1

B4: VG(M)M: EcR chimera: N-terminal VP16, GAL4 DBD, Manduca D and E domains; SEQ ID NO:142-143 (protein)
chain: MQQLYVDFFSPAFIRYLFAWYCFFCRCSPCCLVLLLQGSATMHVKLAPPTDVSLGDELHLDGEDVAMAHADALDDFDLDMLGDGDSPGPGFTPHDSAPYGALDMADFEFEQMFTDALGIDEYGGHVTSKLLSSIEQACDICRLKKLKCSKEKPKCAKCLKNNWECRYSPKTKRSPLTRAHLTEVESRLERLEQLFLLIFPREDLDMILKMDSLQDIKALLTGLFVQDNVNKDAVTDRLASVETDMPLTLRQHRISATSSSEESSNKGQRQLTVSTRMRPECVVPESTCKNKRREKEAQREKDKLPVSTTTVDDHMPAIMQCDPPPPEAARIHEVVPRFLTEKLMEQNRLKNVTPLSANQKSLIARLVWYQEGYEQPSEEDLKRVTQTWQLEEEEEEETDMPFRQITEMTILTVQLIVEFAKGLPGFSKISQSDQITLLKASSSEVMMLRVARRYDAATDSVLFANNQAYTRDNYRKAGMSYVIEDLLHFCRCMYSMSMDNVHYALLTAIVIFSDRPGLEQPLLVEEIQRYYLKTLRVYILNQHSASPRCAVLFGKILGVLTELRTLGTQNSNMCISLKLKNRKLPPFLEEIWDVAEVSTTKL
[1]; [5]
  Experiment #1 RLU: 2.21 RLU
  Experiment #2 RLU: 2.52 RLU

B5: GV(M)M: EcR chimera: GAL4 DBD, internal VP16, Manduca D and E domains; SEQ ID NO:147-148 (protein)
chain: MQQLYVDFFSPAFIRYLFAWYCFFCRCSPCCLVLLLQGSATMKLLSSIEQACDICRLKKLKCSKEKPKCAKCLKNNWECRYSPKTKRSPLTRAHLTEVESRLERLEQLFLLIFPREDLDMILKMDSLQDIKALLTGLFVQDNVNKDAVTDRLASVETDMPLTLRQHRISATSSSEESSNKGQRQLTVSTRMRPECVVPESTCKLAPPTDVSLGDELHLDGEDVAMAHADALDDFDLDMLGDGDSPGPGFTPHDSAPYGALDMADFEFEQMFTDALGIDEYGGNTCKNKRREKEAQREKDKLPVSTTTVDDHMPAIMQCDPPPPEAARIHEVVPRFLTEKLMEQNRLKNVTPLSANQKSLIARLVWYQEGYEQPSEEDLKRVTQTWQLEEEEEEETDMPFRQITEMTILTVQLIVEFAKGLPGFSKISQSDQITLLKASSSEVMMLRVARRYDAATDSVLFANNQAYTRDNYRKAGMSYVIEDLLHFCRCMYSMSMDNVHYALLTAIVIFSDRPGLEQPLLVEEIQRYYLKTLRVYILNQHSASPRCAVLFGKILGVLTELRTLGTQNSNMCISLKLKNRKLPPFLEEIWDVAEVSTTKL
[1]; [5]
  Experiment #1 RLU: 1.71 RLU
  Experiment #2 RLU: 1.77 RLU
